Columns and labels:
[1] = activity of the purified enzymes on Leu-pNA; format: biochemical; conditions: 100-fold dilution
Description: The enzyme solution was then loaded onto a XK-26 column containing Q-Sepharose Big Beads pre-equilibrated with 20 mM phosphate buffer pH 7.5 buffer. A gradient was run from 0 to 300 mM NaCl, and then washed with 350 ml of 300 mM NaCl. Fractions were assayed for Leu-pNA activity according to the following protocol. The substrate was prepared by dissolving 2 mg of Leu-pNA (Sigma Chemical Co., St. Louis, Mo.) in 20 μl of DMSO. Then, 980 μl of 50 mM sodium phosphate pH 7.5 buffer was added. In a 96 well microtiter plate, 100 μl of the substrate solution was added to 100 μl of Aspergillus oryzae aminopeptidase I (100 fold diluted in 50 mM sodium phosphate pH 7.5 buffer) and the increase in absorbance at 405 nm was measured for 4 minutes using a SpectroMax 340 plate reader.
The purified aminopeptidase I was determined to have an activity of 26.822 LAPUs/ml for Leu-pNA using an extinction coefficient of 10,000 for para-nitroaniline at 405 nm. LAPU is defined as the leucine aminopeptidase activity which is determined as described in AF 298/1-GB (available on request from Novo Nordisk A/S, Denmark). The purified dipeptidyl aminopeptidase I was determined to have an activity of 11.54 DPAPU/ml for Ala-Pro-pNA, also using an extinction coefficient of 10000 for paranitroaniline. […]

[2] = activity of the purified enzymes on Ala-Pro-pNA; format: biochemical; conditions: purified enzyme; extinction coefficient of 10000
Description: A polypeptide of the present invention is added to the proteinaceous substrate in an effective amount conventionally employed in protein hydrolysis processes, preferably in the range of from about 0.1 to about 100,000 dipeptidyl aminopeptidase units (DPAPU) per 100 g of protein, and more preferably in the range of from about 1 to about 10,000 dipeptidyl aminopeptidase units per 100 g of protein. As defined herein, one dipeptidyl aminopeptidase Unit (DPAPU) is the amount of enyzme needed to release 1 micromole of p-nitroanilide per minute from Ala-Pro-p-nitroanilide (Sigma Chemical Co., St. Louis Mo.) under specified conditions.
The sample was then loaded onto a column (XK-26) containing 60 ml of Q-Sepharose Big Beads, which had been pre-equilibrated with 400 ml of 20 mM sodium phosphate pH 7.0 buffer. The column was washed until baseline was reached. […] In a 96 well microtiter plate, 100 μl of the substrate solution was added to 100 μl of Aspergillus oryzae dipeptidyl aminopeptidase I (100 fold diluted in 50 mM sodium phosphate buffer pH 7.5) and the increase in absorbance at 405 nm was measured for 4 minutes using a SpectroMax 340 plate reader (Molecular Devices, Sunnyvale, Calif.). […]
The purified aminopeptidase I was determined to have an activity of 26.822 LAPUs/ml for Leu-pNA using an extinction coefficient of 10,000 for para-nitroaniline at 405 nm. […]

- velocity on Leu-pNA [1]: < 2 mOD/min
- activity for Ala-Pro-pNA [2]: 11.54 DPAPU/ml
B1: dipeptidyl aminopeptidase I: Recombinant Aspergillus oryzae 1568 (ATCC 20386) dipeptidyl aminopeptidase I, 771 amino acids (SEQ ID NO:2), produced in Fusarium and purified (protein, listed as Aspergillus oryzae)
chain: MKYSKLLLLLVSVVQALDVPRKPHAPTGEGSKRLTFNETVVKQAITPTSRSVQWLSGAEDGSYVYAAEDGSLTIENIVTNESRTLIPADKIPTGKEAFNYWIHPDLSSVLWASNHTKQYRHSFFADYYVQDVESLKSVPLMPDQEGDIQYAQWSPVGNTIAFVRENDLYVWDNGTVTRITDDGGPDMFHGVPDWIYEEEILGDRYALWFSPDGEYLAYLSFNETGVPTYTVQYYMDNQEIAPAYPWELKIRYPKVSQTNPTVTLSLLNIASKEVKQAPIDAFESTDLIIGEVAWLTDTHTTVAAKAFNRVQDQQKVVAVDTASNKATVISDRDGTDGWLDNLLSMKYIGPIKPSDKDAYYIDISDHSGWAHLYLFPVSGGEPIPLTKGDWEVTSILSIDQERQLVYYLSTQHHSTERHLYSVSYSTFAVTPLVDDTVAAYWSASFSANSGYYILTYGGPDVPYQELYTTNSTKPLRTITDNAKVLEQIKDYALPNITYFELPLPSGETLNVMQRLPPGFSPDKKYPILFTPYGGPGAQEVTKRWQALNFKAYVASDSELEYVTWTVDNRGTGFKGRKFRSAVTRQLGLLEAEDQIYAAQQAANIPWIDADHIGIWGWSFGGYLTSKVLEKDSGAFTLGVITAPVSDWRFYDSMYTERYMKTLSTNEEGYETSAVRKTDGFKNVEGGFLIQHGTGDDNVHFQNSAALVDLLMGDGVSPEKLHSQWFTDSDHGISYHGGGVFLYKQLARKLYQEKNRQTQVLMHQWTKKDLEE
